Results: patent US20100261660A1 (published 2010)

Biological target: T1, Soluble CTLA-4-Ig (extracellular domain of human CTLA-4 fused to the Fc portion of human IgG1) (human, UniProt P16410 36-161, FITC-conjugated in the FACS binding assays)
T1 construct: extracellular domain; bought from R&D Systems; also called sCTLA-4-Ig; CTLA-4-Ig Fc; not shown: Fc portion of human IgG1
Assay: competitive FACS on transfected cells, FITC-sCTLA-4-Ig with biotin-sCD28-Ig; grade 0-2 of CTLA-4/CD28 ratio vs WT hB7-1

T1 sequence (P16410 36-161): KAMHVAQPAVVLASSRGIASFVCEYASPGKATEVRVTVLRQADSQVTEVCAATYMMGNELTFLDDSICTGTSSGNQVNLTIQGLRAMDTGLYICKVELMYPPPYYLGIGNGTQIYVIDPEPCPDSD

Binding Score | Binder
0 | Round 2 CTLA4BP 5x2-e12 (ligand) VIHVTKEVKEVATLSCGHNVSVEELAQTRIHWQKEKKMVLTMMSGGMNIWPEYKNRTIFDITNNLSIVILALRPSDEGTYECVVLKYEKDAFKREHLAEVTLSVKADFPTPSISDFEIPTSNIRRIICSTSGGFPEPHLSWLENGEELNAISTTVSQDPGTELYAVSSKLDFNMTTNRSFVCLIKYGHLRVNQTFNWNTTKQEHFPDNLLPSWAITLISVNGIFVICCLTYCFAPRCRERRRNERLRRESVRPV
2 | Round 2 CTLA4BP-5x2-8c (ligand) VIHMTKEVKEVATLSCGHNVSVEELAQTRIYWQKEKKMVLTMMSGDMNIWPEYKNRTIFDITNNLSIVILALRPSDEGTYECVVLKYEKDAFKQEHLAEVMLSVKADFPTPSITDFEIPPSNIRRIICSTSGGFPEPHLFWLENGEELNAINTTVSQDPETELYAVSSKLDFNMTTNHSFVCLIKYGHLRVNQTFNWNTPKQEHFPDNLLPSWAITLISANGIFVICCLTYCFAPRCRERRRNERLRRESVHPV
2 | Round 2 CTLA4BP-5x2-3c (ligand) VIHVTREVKEVATLSCGHNVSVEELAQTRIHWQKEKKMVLTMMSGDMNIWPEYKNRTIFDITNNLSIVILALRPSDEGTYECVVLKYEKDAFKREHLAEVMLSVKADFPTPSISDFEIPTSNIRRIICSTSGGFPEPHLSWLENGEELNAINTTVSQDPETGLYTVSSKLDFNMTTNHSFMCLIKYGHLRVNQTFNWNTPKQEHFPDNLLPSWAITLISVNGIFVICCLTYCFAPRCRERRRNERLRRESVCPV
1 | Round 2 CTLA4BP 5x5-c10 (ligand) VIHVTKEVKEVATLSCGHNVSVEELAQTRIYWQKEKKMVLTMMSGDMNIWPEYKNRTIFDITNNLSIVILALRPSDEGTYECVVLEYEKDAFKREHLAEVTLSVKADFPTPSITDFEIPPSNIRRIICSTSGGFPEPHLFWLENGEELNAISTTVSQDPETELYAVSSKLDFNMTTNHSFMCLIKYGHLRVNQTFNWNTTKQEHFPDNLLPSWAITLISVNGIFVICCLTYCFAPRCRERRRNERLRRESVHPV
2 | Round 2 CTLA4BP-5x3-10e (ligand) VIHVTKEVKEVATLSCGHNVSVEELAQTRIYWQKEKKMVLTMMSGDMNIWPEYKNRTIFDITNNLSIVILALRPSDEGTYECVVLEYEKDAFKREHLAEVTLSVKADFPTPSISDFEIPPSNIRRIICSTSGGFPEPHLFWLENGEELNAINTTVSQDPETELYAVSSKLDFNMTTNHSFMCLIKYGHLRVNQTFNWNTPKQEHFPDNLLPSWAITLISANGIFVICCLTYCFAPRCRERKSNERLRRESVHPV
1 | Round 2 CTLA4BP 5x2-h11 (ligand) VIHVTKKVKEVATLSCGHNVSVEELAQTRIYWQKGKKMVLTMMSGDMNIWPECKNRTIFDITNNLSIVILALRPSDEGTYECAVLKYEKDAFKREHLAEVTLSVKADFPTPSISDFEIPTSNIRRIICSTSGGFPEPHLFWLENGEELNAINTTASQDPETELYAVSSKLDFNMTTNHSFMCLIKYGHLRVNQTFNWNTPKQEHFPDNLLPSWAITLISVNGIFVICCLTYCFAPRCRERKSNERLRRESVRPV
0 | Round 2 CTLA4BP 5x2-f3 (ligand) VIHVTKEVKEVATLSCGHNVSVEELAQTRIYWQKEKKMVLTMMPGDMNIWPEYKNRTIFDITNNLSIVILALRPSDEGTYECVVLRYEKDAFKREHLAEVTLSVKADFPTPSISDFEIPTSNIRRIICSTSGGFPEPHLSWLENGEELNAINTTASQDPETELYTVSSKLDFNMTTNRSFVCLIKYGHLRVNQTFNWNTPKQEHFPDNLLPSWAITLISANGIFVICCLTHCFAPRCRERKSNERLRRESVRPV
1 | Round 2 CTLA4BP 5x3-c3 (ligand) VIHMTKEVKEVATLSCGPNVSVEELAQTRIYWQKEKKMVLTMMSGDMNIWPEYKNRTIFDITNNLSIVILALRPSDEGTYECVVLKYEKDAFKREHLAEVTLSVKADFPTPSISDFEIPTSNIRRIICSTSGGFPEPHLSWLENGEELNAINTTVSQDPGTELYTVSSKLDFNMTTNHSFMCLIKYGHLRVNQTFNWNTPKQEHFPDNLLPSWAITLISVNGIFVICCLTHCFAPRCRERRRNERLRRESVCPV
1 | Round 2 CTLA4BP 5x3-c4 (ligand) VIHVTKEVKEVATLSCGHNVSVEELAQTRIYWQKEKKMVLTMMSGDMNIWPEYKNRTIFDITNNLSIVILALRPSDEGTYECVVLKYEKDAFKREHLAEVTLSVKADFPTPSISDFEIPPSNIRRIICSTSGGFPEPRLAWMEDGEELNAINTTASQDPETELYTVSSKLDFNMTTNRSFVCLIKYGHLRVNQTFNWNTPKQEHFPDNLFPSWAITLISVNGIFVICCLTYCFAPRCRERRRNERLRRESVRPV
2 | Round 2 CTLA4BP 5x4-h1 (ligand) VIHVTKEVKEVATLSCGHNVSVEELAQTRIHWQKEKKMVLTMMSGDMNIWPEYKNRTIFDITNNLSIVILALRPSDEGTYECVVLKYEKDAFKRKHLAEVMLSVKADFPTPSISDFEIPTSNIRRIICSTSGGFPEPHLFWLENGEELNAINTTASQDPETELYTVSSKLDFNMTTNRSFVCLIKYGHLRVNQTFNWNTPKQEHFPNNLLPSWAITLISVNGIFVICCLTYCFAPRCRERRRNETLRRESVHPV
1 | Round 2 CTLA4BP-5X2-12F (ligand) VIHVTKEVKEVATLSCGHNVSVEELAQTRIHWQKEKKMVLTMMSGDMNIWPEYKNRTIFDITNNLSIVILALRPSDEGTYECVVLKYEKDAFKREHLAEVTLSVKADFPTPSITDFEIPPSNIKRIICSTSGGFPEPHLSWLENGEELNAINTTVSQDPETELYTVSSKLDFNMTTNHSFMCLIKYGHLRVNQTFNWNTPKQEHFPDNPLPSWAITLISANGIFVICCLTYCFAPRCRERRRNETLRRESVRPV
1 | Round 2 CTLA4BP 5x3-e8 (ligand) VIHVTKEVKEVATLSCGHNVSVEELAQTRIYWQKEKKMVLTMMSGDMNIWPEYKNRTIFDITNNLSIVILALRPSDEGTYECVVLEYEKDAFKREHLAEVTLSVKADFPTPSISDFEIPTSNIRRIICSTSGGFPEPHLFWLENGEELNAINTTVSQDPETELYTVSSKLDFNMTANHSFVCLIKYGHLRVNQTFNWNTPKQEHFPDNLLPSWAITLISVNGIFVICCLTYCFAPGCRERRRNERLRRESVCPV
2 | Round 2 CTLA4BP-5x3-6f (ligand) VIHVTKEVKEVATLSCGHNVSVEELAQTRIYWQKGKKMVLTMMSGDMNIWPEYKNRTIFDITNNLSIVILALRPSDEGTYECVVLEYEKDAFKREHLAEVMLSVKADFPTPSISDFEIPTSNIRRIICSTSGGFPEPHLSWLENGEELNAINTTASQDPETELYTVSSKLDFNMTTNHSFMCLIKYGHLRVNQTFNWNTPKQEHFPDNLLPSWAITLISANGIFVICCLAYCFAPGCRERKSNERLRRESVRPV
2 | Round 2 CTLA4BP-5x2-2g (ligand) VIHVTKEVKEVATLSCGHNVSVEELAQTRIHWQKEKKMVLTMMSGDMNIWPEYKNRTIFDITNNLSIVILALRPSDEGTYECVVLKYEKDAFKREHLAEVMLSVKADFPTPSITDFEIPTSNIRRIICSTSGGFPEPHLSWLENGEELNAINTTVSQDPETELYTVSSKLDFNMTTNHSFMCLIKYGHLRVNQTFNWNTPKQEHFPDNLLPSWAITLISVNGIFVICCLTYRFAPRCRERKSNERLRRESVRPV
1 | Round 2 CTLA4BP 5x5-h12 (ligand) VIHVTKKVKEVATLSCGHNVSVEELAQTRIHWQKEKKMVLTMMSGDMNIWPEYKNRTIFDITNNLSIVILALRPSDEGTYECVVLKYEKDAFKREHLAEVMLSVKADFPTPSISDFEIPPSNIRRIICSTSGGFPEPHLSWLENGEELNAINTTVSQDPGTELYTVSSKLDFNMTTDRSFVCLIKYGHLRVNQTFNWNTPKQEHFPDNLLPSWAITLISVNGIFVICCLTYCFAPRCRERRRNGRLRRESVRPV
1 | Round 2 CTLA4BP-5x2-7b (ligand) VIHVTKEVKEVATLSCGHNVSVEELAQTRIHWQKEKKMVLTMMSGDMNIWPEYKNRTIFDITNNLSIVILALRPSDEGTYECVVLKYEKDAFKREHLAEVTLSVKAGFPTPSITDFEIPPSNIRRIICSTSGGFPEPHLSWLENGEELNAINTTVSQDPGTELYTVSSKLDFNMTANHSFVCLIKYGHLRVNQTFNWNTPKQEHFPDNLLPSWAITLISANGIFVICCLTYCFAPRCRERRRNERLRRESVRPV
0 | Round 2 CTLA4BP 5x4-a1 (ligand) VIHVTKEVKEVATLSCGHNVSVEELAQTRIYWQKEKKMVLTMMSGDMNIWPEHKNRTIFDITNNLSIVILALRPSDEGTYECVVLKYEKDAFKREHLAEVTLSVKADFPTPSITDFEIPTSNIRRIICSTSGGFPEPHLSWLENGEELNAINTTVSQDPGTELYTVSSKLDFNMTTNRSFVCLIKYGHLRVNQTFNWNTPKQEHFPDNLLPSWAITLISVNGIFVICCLTYCFAPRCRERRRNERLRRESVRPV
1 | Round 2 CTLA4BP 5x9-d10 (ligand) VIHVTKEVKEVATLSCGLNVSVEELAQTRIYWQKGKKMVLTMMSGDMNIWPEYKNRTIFDITNNLSIVILALRPSDEGTYECVVLEYEKDAFKREHLAEVMLSVKADFPTPSISDFEIPPSNIRRIICSTSGGFPEPHLSWLENGEELNAINTTASQDPGTELYTVSSKLDFNMTTNHSFMCLIKYGHLRVNQTFNWNTPKQEHFPDNLLPSWAITLISVNGIFVICCLTHCFAPRCRERRRNERLRRESARPV
1 | Round 2 CTLA4BP-5x2-4c (ligand) VIHVTKEVKEVATLSCGLNVSVEELAQTRIYWQKEKKMVLTMMSGDMNIWPEYKNRTIFDITNNLSIVILALRPSDEGTYECVVLEYEKDAFKREHLAEVMLSVKADFPTPSISDFEIPPSNIRRIICSTSGGFPEPHLSWLENGEELNGINTTVSQDPETELYTVSSKLDFNMTTNRSFVCLIKYGHLRVNQTFNWNTPKQEHFPDNLLPSWAITLISVNGIFVICCLTYCFAPRCRERRRNERLRRESVHPV
1 | Round 2 CTLA4BP 5x6-f6 (ligand) VIHVTKEVKEVATLSCGHNVSVEELAQTPIYWQKEKKMVLTMMSGDMNIWPEYKNRTIFDITNNLSIVILALRPSDEGTYECVVLKYEKDAFKREHLAEVMLSVKADFPTPSITDFEIPPSNIRRIICSTSGGFPEPHLFWLENGEELNAINTTVSQDPETELYTVSSKLDFNMTTNRSFVCLIKYGHLRVNQTFNWNTPKQEHFPDNLLPSWAITLISANGIFVICCLTYRFAPRCRERRRNERLRRESVCPV
